The values that follow come from the DeepSol protein solubility set.

A short description of this data set: soluble on expression in E. coli; label from the status in PepcDB or PDB records.
As to “MAHHHHHHMSRLKHVEWDEKNLEANAEYQRQHPVTIHITEPKTPYSYADGDDLEAEEEGLLKWDPAVNAKVKEIKEQIAGDFSDRPVAPIAKSGRPMLAEGTSTGELAQQQHQKEFRKMRKAVYADEGAMFKRALSHECKDEDDE”, the “soluble on expression in E. coli” value is given as “not soluble”.

In the case of “MSLGEKRVELHLHTPMSQMDAVTPVSKLVAQAGKWGHEAIAVTDHAVAQSFPEAYSAGKKAGVKVIYGVEANLVNDGVPIAYNEEHRLLADETYVVFDVETTGLSAVYDTVIELAAVKVKGGEIIDRFESFANPHQPLSATIIELTGITDDMLTDAPEVDEVFKKFEEWMGDHTLVAHNASFDMGFINVGFKKAGLEKTKNPVIDTLELARFLFPEMKNHRLNTLCKKMDIELTQHHRAIYDTEATGYLLVKMLKDVIEKGFEYHDQLNDSMGQGDAYKRGRPSHMTLLATSDVGLKNLYKLVSYSHLNYFYRVPRVPRSLLKKYREGILVGTACDKGEVFEAMMQKAPEEVEEIAQFYDYIEVMPPEVLRHLVERELVRDEGQLKTIISNLVKLGETLDKPVVATGNVHYLDPEDAMYRKILVSSQGGANPLNRHSEGHHHHHH”, the “soluble on expression in E. coli” value is listed as “soluble”.

In the case of “MKLTPNFYRDRVCLNVLAGSKDNAREIYAAAEGHVLVGVLSKNYPDVASAVADMREYAALIDNALSVGLGAGDPNQSAMVSEISRQVQPQHVNQVFTGVGTSRALLGQNETVVNGLVSPTGTPGLVKISTGPLSSRAPDGIVPIETAIALLKDMGGSSVKYFPMGGLTCRDEYKAVAEPAPAMISGWNRRAVSIWKTSPRFCTSPLMQV”, the “soluble on expression in E. coli” value is on record as “not soluble”.

As to “MCMVKVWVEKLLDEPELYILRLDDSEIKHFEAAWSIPEGITYNAYLMKVGDAVVLFDTWKGEYTEKFLESLSTLVDPKEITHIIVHHTEPDHSGALPKLLELNEYRAKLIGTTFAKNLLQGFYGDKVVENFHTIKDGEEVKIGNRTFRFITVPWLHWPDTMITYDVEDKLIFSCDAGGGYGIPEAIDDSDEDVVKKYLPYVTKYIVTVIGHYHKYIVQNIKKLKELGIIENANMILPGHGLIWRKSPTRIFEHYERVGAGIPTKDKVLVIYDSMYGFVEKRMSVVIEELKRYGKKPVVYRFTDKENPAISDILGEVPDSEALVIGVSTYEADIHPRMRCALYEILDKANYEKPVLIVGAFGWGGVAGKKVETLISRSKFELVDVVETKGRMTSEDEERLREAVRKLIQWQL”, the “soluble on expression in E. coli” value was “soluble”.

Consider “MTEMAKGSVTHQRLIALLSQEGADFRVVTHEAVGKCEAVSEIRGTALGQGAKALVCKVKGNGVNQHVLAILAADQQADLSQLASHIGGLRASLASPAEVDELTGCVFGAIPPFSFHPKLKLVADPLLFERFDEIAFNAGMLDKSVILKTADYLRIAQPELVNFRRTA”, for which the “soluble on expression in E. coli” value is reported as “soluble”.

For “GMDDQSGDQMRPELTMPPAEAEALRMAYEEAEVILEYGSGGSTVVAAELPGKHVTSVESDRAWARMMKAWLAANPPAEGTEVNIVWTDIGPTGDWGHPVSDAKWRSYPDYPLAVWRTEGFRHPDVVLVDGRFRVGCALATAFSITRPVTLLFDDYSQRRWQHQVEEFLGAPLMIGRLAAFQVEPQPIPPGSLMQLIRTMTSP”, the “soluble on expression in E. coli” value is reported as “soluble”.

With “MSLALNLSKAVVGYLQVRPEEKFTARQIAEWVFATYPAECQEKRANSRGDYIKSDADLVQQLVAEISSQRPRMQMKHPALKTTEGRPRKYYYSEKSDSAEVAAAEGEGATAAADIGTSMLDEHALYPLLSQYLWEEFGVFSKRINEKRSSNKRGPNGNRWLYPDMVGMQDLGADWHREVRDCVKQYSDKRTKLWSFEVKLLINRSNIRECFFQAVSNSSWSNFGYLVAAEVSGQETLKELRMLFAAHGIGFIRLDVDNPADSQVLIPARERDAIDWDMANRLATENRDFLNYVKQVKQFYQTGEARFKDWDVPEEYSIQEGHHHHHH”, the “soluble on expression in E. coli” value is given as “soluble”.

In the case of “MGSDKIHHHHHHMIRPSLAHTIISEVRKLLDEDLIVVDPSGTIIASTDKERMGSFHEGALISYNERRRLIITQDDESKLTGVKAGINLPIFFQDQVVGVIGITGDPSKVSAYGELLRKMTELLIKEKYYAEQLEWHARTLEAFVFDWVQQKEWTRSFINQAKMLHIDLTVSRQVIIGYYGQHNRERIQREWWIDVSQTFTRQKDDLLVRWGNDRFVMLLANKAEGKERAVHSIQQIQKYIQNKYRHSLSFGVGQSVCPQELYRSFEQAERALAVAVRTQSIVFEEDLRLDMCLQDVKKQTRVDFVQRTLEPIMKDEDLLETLKTFIARNQSFKETAETLHIHINTLHYRLKKMEDKTGLNPRDFHDLTTLYLGLLFLEDNLKN”, the “soluble on expression in E. coli” value is “not soluble”.

For “MGSDKIHHHHHHMASPEYEEYPSADGVMDDATLKDAEIRDWNWAVLPKGSVSTRFAAPSGSLAMVAMGKPQNPRVVLVPGATGSKEDFAVMMPELAEAGFYVLSYDLAGQYESAGAGPENLVPPRRHYDYELFVNDFVAVLESGGVPAHVVGYSFAAIVAQIAYSKRPELFRSFTLLSCPPLTGQCFRGISRFGRFTGLANGRVGAALMIWGIRRNVNKVSPNRLRFVRNRFRFTRRQSVRDIYGLMKNVPDLREHLAAATVPKFVAVGEHDLWPLHLHRQFAQSIGARISVYRGGHSPSETSPHQFGRDLLAMYAEGG”, the “soluble on expression in E. coli” value was “not soluble”.

“MKWKEQAIILGTRQYGETSVILEVMTRQHGRYMGVVKGGRSRRMAVLLQPGNFVEAEWWARLDEHLGLFRLEALDLHAARLILFPEALYALQLIVFHLHLLPERDPHPILYDILHLFMQSFDEPFINAELLVRFEMRFLEELGFGLDLSRCAATGRLEKLCYVSPKSGRAVCEEAGHPWREKLLNLPQFLVQRTVRPVDFSDIKNGFILTGFFLMRHVWEPRNIKQPSVRISLIQLFEQRFRMQASFVDLKTINRM”: the “soluble on expression in E. coli” value is reported as “not soluble”.

Take “MSPHYLRQVKESSGSRLIQQRLLHQQQPLHPEWAALAKKQLKGKNPEDLIWHTPEGISIKPLYSKRDTMDLPEELPGVKPFTRGPYPTMYTFRPWTIRQYAGFSTVEESNKFYKDNIKAGQQGLSVAFDLATHRGYDSDNPRVRGDVGMAGVAIDTVEDTKILFDGIPLEKMSVSMTMNGAVIPVLANFIVTGEEQGVPKEKLTGTIQNDILKEFMVRNTYIFPPEPSMKIIADIFEYTAKHMPKFNSISISGYHMQEAGADAILELAYTLADGLEYSRTGLQAGLTIDEFAPRLSFFWGIGMNFYMEIAKMRAGRRLWAHLIEKMFQPKNSKSLLLRAHCQTSGWSLTEQDPYNNIVRTAIEAMAAVFGGTQSLHTNSFDEALGLPTVKSARIARNTQIIIQEESGIPKVADPWGGSYMMECLTNDVYDAALKLINEIEEMGGMAKAVAEGIPKLRIEECAARRQARIDSGSEVIVGVNKYQLEKEDTVEVLAIDNTSVRNRQIEKLKKIKSSRDQALAERCLAALTECAASGDGNILALAVDASRARCTVGEITDALKKVFGEHKANDRMVSGAYRQEFGESKEITSAIKRVHKFMEREGRRPRLLVAKMGQDGHDRGAKVIATGFADLGFDVDIGPLFQTPREVAQQAVDADVHAVGVSTLAAGHKTLVPELIKELNSLGRPDILVMCGGVIPPQDYEFLFEVGVSNVFGPGTRIPKAAVQVLDDIEKCLEKKQQSVAENLYFQSHHHHHHDYKDDDDK”: the “soluble on expression in E. coli” value was “soluble”.

For “LTSKLVQAGANVKVIMTESACRFVSPLTFQALSRHEVYTDTFKEQNPSVISHIDAADWADLIIVAPATANVIGKLANGIADDMLTTTLLAATAPVWIAPAMNVHMYDHPAVKRNISVLYQDGYCFIEPSEGYLACGYVGKGRLEEPENIVKLAEKHFAEETSAPLEGKHVVITAGPTREAIDPVRFFTNKSTGKMGYALAEAAVQLGARVILISGPVSLDQPKGLAEFIPVQSAADMREAVLSVYDASDIVIKTAAVADFTPKTVFDHKMKKQDGGMTLELKRTVDILKELGEKKKEQILVGFAAETQDIEHYARKKLAAKNLDLIVANDVKANGAGFGADTNIVTIFFKDGHKRELPIMSKLDVSFEILQEIAALSKQTGERS”, the “soluble on expression in E. coli” value is “not soluble”.

Turning to “MSLKPWLITPERLTSEQIGLLDHFFDRGLERLHLRLPSAGEEDYSQVIEAVAACYRRRIVVHDHPRLVGRYGLCGLHLPERVWKGMTDRPQLPDGCTVSASCHAIEDIESFPFRLDYCFLSPVFDSLCKVGYAGRFSPDSLGDRLQRLHLPVVALGGITPDRLPQLRRAGFASAAALGYVWLVEGRELMRWQELCTPAVICVGGVDPSAGAGITADVRTAENMGVRAYTVATAITFQGSGSYRGERWVDSADIIRQIESLSAEMEPAVAKIGLIRDSDTLSLVVDCLKKVFPSIRIVWDPVLRASADSSAGQADRFNLEDITALSRIDFITPNLPEARHLLGCEPDDETLLDFYRRSGVGLVLKGGHAGESVVTDRIVYDGRCEALRLLRGGTGKHGTGCAHSTAFAAALALEQEPFTAAGMAQLYVSRLRERASGLLAMHKDLPVDPVVRLMSEIDLQFITHRQPDLSELEEAEAVCRIGVRWVQLRMKEASDEEMLHTACAVKAVCRHHGALFVVNDRVEIARQVDADGVHLGKEDMAIVEARRILGSNKIIGRTCNTMEDVRRAYAEGADYVGIGPYRYTETKQRLAPVLGLEGYKAIAACMQAEGIRLPAFAIGGIEDADIPLIRDCGIGGIAVSGSLIRKIKKEGHHHHHH”, the “soluble on expression in E. coli” value was “soluble”.

For “MGSDKIHHHHHHMKEVFDLRGRVALVTGGSRGLGFGIAQGLAEAGCSVVVASRNLEEASEAAQKLTEKYGVETMAFRCDVSNYEEVKKLLEAVKEKFGKLDTVVNAAGINRRHPAEEFPLDEFRQVIEVNLFGTYYVCREAFSLLRESDNPSIINIGSLTVEEVTMPNISAYAASKGGVASLTKALAKEWGRYGIRVNVIAPGWYRTKMTEAVFSDPEKLDYMLKRIPLGRTGVPEDLKGVAVFLASEEAKYVTGQIIFVDGGWTAN”, the “soluble on expression in E. coli” value is recorded as “soluble”.

In the case of “MRDMGEPKLKIVAMPSDTNPAGNIFGGWILSQIDLAGAIAARELSPERVVTISMDKVVFKEPVFIGDIISCYSKVVNVGNTSISVEVEVTAQRVDSQGCTSCINVTSALVTYVSVTRDGKKNPISEELKRIHGFLNALEHHHHHH”, the “soluble on expression in E. coli” value is “soluble”.

Consider “MGSDKIHHHHHHMSAIERITKAAHLIDMNDIIREGNPTLRTVAEEVTFPLSDQEIILGEKMMQFLKHSQDPVMAEKMGLRGGVGLAAPQLDISKRIIAVLVPNIVEEGETPQEAYDLEAIMYNPKIVSHSVQDAALGEGEGCLSVDRNVPGYVVRHARVTVDYFDKDGEKHRIKLKGYNSIVVQHEIDHINGIMFYDRINEKDPFAVKDGLLILE”, for which the “soluble on expression in E. coli” value is recorded as “soluble”.

As to “MRNVMKATTLESKFPLLAVENGCIVSKEADVTVAFRVELPELFSVTGSEYEAVHSAWHKAVKVLPEYSIVHKQDFFIEEKYRPETDRDDLSFLSRSFERHFNERPFLNHFCYLFLTKTTKARSRQESTFSTLCKGRLVPKEIEDRETVTRFLEAVGQFEKIMNDSGFVTLRRLTTDEITGTETAAGIVEKYLSLSQHDTTVLKDIQLNPEEMRIGDDILCLHTLSDTEDLPGKVATDSRYERLSTDRSDCRLSFAAPVGLLLDCNHCYNQYIFIDDHGENLKRFEQTARNMHSLSRYSRSNQINKAWIEEYLNEAHSKGLTSVRCHCNVMAWSDDREELRRIKNEVGSQLALMECKPRHNTVDVPTLFWAAIPGNEGDFPFEESFYTFIPQALCFFTEETNYKDSLSPFGIKMADRMTGRPLHLDISDLPMKKGVISNRNKFVLGPSGSGKSFFMNHLVRQYYEQNSHIVLIDTGNSYQGLCELIHRKTKGEDGIYYTYTEEKPISFNPFFTDDYKFSVEKKDSIKTLLLALWKGEDEKVTKTESGELGSAVSAYIRRIQQNRDIAPSFDTFYEYMLNDYRKELAARDIKVSREDFNIDNFLTTLRQYYKGGRYDFLLNSNENIDLLHKRFIVFEIDAVKDNAELFPVVTIIIMEAFINKLRRLKGVRKMLICEEAWKALSSPSMSEYLKYLYKTVRKYFGEAIVVTQEVDDIISSPIVKEAIITNSDCKILLDQKKYMNKFDGIQSMLGLTDKEKSQILSINLANHPGRKYKEVWIGLNGVQSAVYATEVSAAEYLTYTTEESEKTEVFALAEELGGDLELAIKRLAETKYK”, the “soluble on expression in E. coli” value is recorded as “not soluble”.
